Measurements: paper doi:10.1101/2024.03.21.586141, “Delving into human α1,4-galactosyltransferase acceptor specificity: the role of enzyme dimerization” (bioRxiv, 2024)
Substitutions are numbered along the chain they refer to. Numbers in names are those of the source. Blank lines part the entries; values can stand above or below the binder they belong to.

Assays:
Conditions in all cases: partners not purified
[1] = target: T1, human β1,4-galactosyltransferase 1 (B4galt1) (human, UniProt P15291-2 1-385); assay: split reporter (BiFC, NanoBiT); NanoBiT in live HEK293T cells, co-transfected with LgBiT and SmBiT fusions (N- or C-terminal, 25 ng of each plasmid a well), Nano-Glo Live Cell Substrate in Opti-MEM; fold of luminescence over LgBiT fusion with HaloTag-SmBiT, threshold 10-fold
T1 construct: human β1,4-galactosyltransferase 1, ORF of GenBank NM_001378495.1 nucleotides 30-1187 (1158 nt: 385 codons and stop); Synthetic ORF (Thermo Fisher) recloned into pBiT1.1-N/C and pBiT2.1-N/C; also called N-Lg-B4galt1; C-Lg-B4galt1; source: HEK293T or CHO-Lec2 cells, transfected (PEI), in live cells; not shown: LgBiT or SmBiT (NanoLuc subunit), N-terminal or C-terminal, kept
T1 sequence (looked up): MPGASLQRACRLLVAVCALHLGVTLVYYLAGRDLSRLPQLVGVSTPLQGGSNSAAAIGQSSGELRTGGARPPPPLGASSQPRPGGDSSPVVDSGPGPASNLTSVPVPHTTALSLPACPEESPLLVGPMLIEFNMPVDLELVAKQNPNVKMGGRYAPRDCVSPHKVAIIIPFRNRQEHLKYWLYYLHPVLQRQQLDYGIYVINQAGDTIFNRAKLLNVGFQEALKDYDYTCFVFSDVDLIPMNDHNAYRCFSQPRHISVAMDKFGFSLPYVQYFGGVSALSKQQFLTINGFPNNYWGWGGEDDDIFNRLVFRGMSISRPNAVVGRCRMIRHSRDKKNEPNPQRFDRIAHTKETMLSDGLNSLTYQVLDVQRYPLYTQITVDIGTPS

[2] = target: T1, human β1,4-galactosyltransferase 1 …; assay: split reporter (BiFC, NanoBiT); NanoBiT in live CHO-Lec2 cells, co-transfected with LgBiT and SmBiT fusions (N- or C-terminal, 25 ng of each plasmid a well), Nano-Glo Live Cell Substrate in Opti-MEM; fold of luminescence over LgBiT fusion with HaloTag-SmBiT, threshold 10-fold
[3] = target: T2, human β1,4-galactosyltransferase 5 isoenzyme (B4galt5) (human, UniProt O43286 1-388); assay: as above
T2 construct: human β1,4-galactosyltransferase 5, ORF of GenBank NM_004776.4 nucleotides 189-1355 (388 codons and stop); Synthetic ORF (Thermo Fisher) recloned into pBiT1.1-N/C and pBiT2.1-N/C; also called N-Lg-B4galt5; C-Lg-B4galt5; source: HEK293T or CHO-Lec2 cells, transfected (PEI), in live cells; not shown: LgBiT or SmBiT (NanoLuc subunit), N-terminal or C-terminal, kept
T2 sequence (looked up): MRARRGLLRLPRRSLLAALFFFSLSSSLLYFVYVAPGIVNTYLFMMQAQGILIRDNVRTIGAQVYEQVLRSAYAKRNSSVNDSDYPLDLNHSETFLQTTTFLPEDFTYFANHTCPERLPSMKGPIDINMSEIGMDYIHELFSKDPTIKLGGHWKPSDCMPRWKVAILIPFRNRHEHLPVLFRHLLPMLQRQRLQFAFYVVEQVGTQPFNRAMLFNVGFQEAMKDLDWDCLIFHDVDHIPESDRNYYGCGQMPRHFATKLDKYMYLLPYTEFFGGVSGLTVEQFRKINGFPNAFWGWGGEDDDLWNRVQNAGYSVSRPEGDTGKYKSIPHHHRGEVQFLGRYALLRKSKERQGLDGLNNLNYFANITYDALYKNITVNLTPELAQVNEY

fold of luminescence over the negative control [1]: ~60 times
fold of luminescence over the negative control [2]: 90 times
fold of luminescence over the negative control [3]: 300 times
B1: human α1,4-galactosyltransferase (A4galt), high-frequency enzyme (p.Q211) (enzyme, UniProt Q9NPC4 1-353, looked up)
chain: MSKPPDLLLRLLRGAPRQRVCTLFIIGFKFTFFVSIMIYWHVVGEPKEKGQLYNLPAEIPCPTLTPPTPPSHGPTPGNIFFLETSDRTNPNFLFMCSVESAARTHPESHVLVLMKGLPGGNASLPRHLGISLLSCFPNVQMLPLDLRELFRDTPLADWYAAVQGRWEPYLLPVLSDASRIALMWKFGGIYLDTDFIVLKNLRNLTNVLGTQSRYVLNGAFLAFERRHEFMALCMRDFVDHYNGWIWGHQGPQLLTRVFKKWCSIRSLAESRACRGVTTLPPEAFYPIPWQDWKKYFEDINPEELPRLLSATYAVHVWNKKSQGTRFEATSRALLAQLHARYCPTTHEAMKMYL
notes: human α1,4-galactosyltransferase, high-frequency variant with Q at position 211; full-length A4GALT gene from pCAG-A4GALT, GenBank NM_001318038.3 nucleotides 325-1386 (353 codons and stop); Four fusions were made (LgBiT or SmBiT at the N- or C-terminus, vectors pBiT1.1-N/C and pBiT2.1-N/C); every protein stood as LgBiT and as SmBiT fusion; also called Gb3/CD77 synthase; P1/Pk synthase; source: …

fold of luminescence over the negative control [1]: ~30 times
fold of luminescence over the negative control [2]: 360 times
fold of luminescence over the negative control [3]: ~1000 times
B2: human α1,4-galactosyltransferase (A4galt), mutein with p.Q211E substitution (enzyme, UniProt Q9NPC4 1-353, looked up)
chain: B1 chain with Q211E
notes: human α1,4-galactosyltransferase, rare natural variant p.Q211E (c.631C>G, rs397514502); full-length A4GALT gene from pCAG-A4GALT, GenBank NM_001318038.3 nucleotides 325-1386; Four fusions were made (LgBiT or SmBiT at the N- or C-terminus); also called mutein human A4galt; rare enzyme variant; source: HEK293T or CHO-Lec2 cells, transfected (PEI), in live cells; not shown: LgBiT or SmBiT (NanoLuc …)
